Experimental findings from the nanobody polyreactivity screen of Harvey et al. (2022) are described below.

The series in a line: yeast display, Sf9 membrane polyspecificity reagent, FACS + sequencing; frameworks hold sequencing errors. The gist of the method: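 Galactose induction of a Saccharomyces cerevisiae BJ5465 synthetic nanobody display library ran 36–48 hours. The cells were then stained for 1 hour at 4 °C with 10% biotinylated, detergent-solubilized Sf9 membrane reagent, pulled down on streptavidin microbeads and FACS-sorted into low and high (top ~1%) gates on expression and reagent-binding fluorescence. Labels for polyreactivity follow the gate of origin.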
As to “QVQLVESGGGLVQAGGSLRLSCAASGIFLKYAKGWYRPAPGKERELVPAIRKRGGSTYYADSVKGRFTISRDNAKNTVYLQMNSLKPEDTAVYYCATRYTYHPGSAGFDYWGQGTQVTVSS”, the “polyreactivity (PSR sort gate)” value is “high polyreactivity”.
Under “QVQLVESGGGLVQAGGSLRLSCAASGSTFRYNTMGWYRQAPGKERELVAAISTSGGTTYYADSVKGRFTISRDNAKNTVYLQMNSLKPEDTAVYYCAARPFPRRWYGAEDYYWGQGTQVTVSS” stands “high polyreactivity”; under “QVQLVESGGGLFQAGGSLSLSCAASGRTLWLYTKRWYTQAPGKEWELVARIRSGGSTYYADSVKGRFTISRDNAKNTVYLQMNSLKPEDTAVYYCAVGSRYYGRGYYYWGQGTQVTVSW”, “high polyreactivity”; under “QVQLVESGGGLVQAGGSLRLSCAASGRIFTKNTMGWYRQAPGKERELVAAIRSRAGSTYYADSVKGRFTISRDNAKNTVYLQMNSLKPEDTAVYYCAVPWFRSVDFDYWGQGTQVTVSS”, “low polyreactivity”.
On to “QVQLVESGGGLVQAGGSLRLSCAASGFIFPTNTMGWYRQAPGKEREFVARITRSGTNTYYADSVKGRFTISRDNAKNTVYLQMNSLKAEDTAVYYCARRGTSSYRRYWLDSASNMDYWGQGTQVTVSS”, for which the “polyreactivity (PSR sort gate)” value was “high polyreactivity”.
Under “QVQLVESGGGLVQAGGSLRLSCAASGIIFINYVMGWYRQAPGKERELVAAISIGGGRTYYADSVKGRFTISRDNAKNTVYLQMNSLKPEDTAVYYCAAEYFYGYKDVYDYWGQGTQVTVSS” stands “high polyreactivity”.
Under “QEHLVESGGGLDQAGGRLRLSCAASGSIFAAYAMGWYRHAPGKERELVAAIKWTDGSTYYADSVKGRFTISRDIAMNTVYLQMNSLKPEDTAVYYCIRRQYGRKKQYDYWVQGTQVTVSS” stands “high polyreactivity”; under “QVQLVESGGGLVQAGGSLRLSCAASGFTIRWYTMGWYRQAPGKERELVAAISRGGSTNYADSVKGRFTISRDNAKNTVYLQMNSLKPEDTAVYYCNAVRGGRYGLDYWGQGTQVTVSS”, “high polyreactivity”.
Under “QVQLVESGGGLVQAGGSLRLSCAASGFTFTQYVKGWYRQAPGKERELVAAITRGGGSTYYADSVKGRFTISRDNAKNTVYLQMNRLKPEDTAFYYCATRRVEYIRGWVEYDYWGQGTQVTVSS” stands “low polyreactivity”; under “QVQLVESAGGLVQAGGSLRLSCAASGFTFREYAMGWYRQAPGKERELVADIDWSGGSTYYADSVKGRFTISRDNAKNTFYLQMNSLKPEDTAVYYCAKAYYPGVYWGQGTQVTVSS”, “high polyreactivity”.
For “QVQLVESGGGLVQAGGSLRLSCAASGSIFTRNAMGWYRQAPGKERELVARISARSGRTYYADSVKGRFTISRDNAKNTVYLQMNSLKPEDTAVYYFAVRYRGKYPFRYNYWGQGTQVTVSS”, the “polyreactivity (PSR sort gate)” value is on record as “high polyreactivity”.
Under “QVQLVESGGGLVQAGGSLRLSCAASGSTLYVYAMGWYRQAPGKEREFVADISWSGGSTYYADSVKGRFTISRDNAKNTVYLQMNILKPEDTAVYYCNADFTDSYWSRYDYWGQGTQVTVSS” stands “low polyreactivity”; under “QVQLVESGGGLVQAGGSLRLSCAASGFIFSNNAMGWYRQAPGKERELVASISSSSRTYYADSVKGRFTISRDNAKNTVYLQMNSLKPEDTAVYYCAAVFRWWGTRVDYWGQGTQVTVSS”, “high polyreactivity”; under “QVQLVESGGGLVQAGGSIRISCEASGITFGRNPMGCDRQAPGKERELVDAIDSGGNTYADSVKGRFTISRDNAKNTFYLQMNRLIPEDTAVYYCAVDGGEFSSYGYWGQGTQVTVSS”, “low polyreactivity”.
Under “QVQLVESGGGLVQAGGSLRLSCAASGSIFYINTMGWYRQAPGKEREMVATIRTSGGSTYADSVKGRFTISRDNAKNTVYLQMNSLKPEDTAVYYCAVRRYRSSSYGYYSWGQGTQVTVSS” stands “high polyreactivity”; under “QVQLVESAGGLVQAGGSLPLSSAASGRIFVWYAMRWYRQAPGKDRELVAAISISGSSTYYADSVKGRFTISRDNAKNTVYLQMNSLNPEDTAVYYCAARFYSSAYWYDYWGQGTQVTVSS”, “high polyreactivity”.
Under “QVQLVESGGGLVQAGCSLRLSCAASGYTSRRNVMGWYRQAPGNERELVAAINSAGSTTYADSVKGRFTISRVNAKNTVYLQMNSLKPEDTAVYYCAASVYTYNYDLHKSYYLGQGTQVTVSS” stands “high polyreactivity”.
For “QVQLVESGGGIVQAGGSLRLSCAASGITFPNYAMGWYRQAPGKERELVAAISSSGGSTYYADSVKGRFTISRDNPKNTVYLQMNSLKPEDTAVYYCATAINVYPRLDYGYWGQGTQVTVSS”, the “polyreactivity (PSR sort gate)” value was “low polyreactivity”.
Regarding “QVQLVESGGGLVQAGGSLRLSCAASGRILAYYAMGWYRQAPGKERELVAAITSGGRTYYADSVKGRFTISRDNAKNTVYLQMNSLKPEDTAVYYCNAVYGYWYGSWGQGTQVTVSS”, the “polyreactivity (PSR sort gate)” value is listed as “high polyreactivity”.
Under “QVQLVESGGCLVQAGGSLRLSCAATGSTLGSYAMGWYRQAPGKERELVAAITFLGGSTYYADSVKGRFTSSRDNAKNTVYLQMNSLKPEDSAVYYCAARFLRVLFNLVFIYDYWGQGSQVTVSS” stands “high polyreactivity”; under “QVQLVESGGGLVQAGGSLRLSCAASGFIFYSYAMGWYRQAPGKEREFVAAISRGGGRTYYADSVKGRFTISRDNAKNTVYLHMYSLKQEDTAVFYCATLPNGPHWPEYDYWGQGTQVTVSS”, “high polyreactivity”; under “QVQLVESGGGLVQAGGSLRLSCAASGRTFYRYAMGWYRQAPGKERELVAAITRRGDSTSYADSVKGRFTISRDNAKNTVYLQMNSLKPEDTAVYYCATLVQGSVYGLYGGGYWGQGTQVTVSS”, “low polyreactivity”.
Under “QVQLVESGGGLVQAGGSLRLSCAASGSTFRVYAMGWYRQATVKERELVAAISGSGGSTYYADSVKGRFTISRYNAKNSVYLQMNSLKPEDTAVYYCAARSWYTEYYWGQGTQVSVSS” stands “high polyreactivity”.
Under “QVQLVESGGGLVQAGGSLRLSCAASGRIIGHNAMGWYRQAPGKERELVAAISSRGGSTFYADSVKGRFTISRDNAKNTVYLQKNSLKPEDTAVYYCNALGVGHSGFTKFSRYYYWGQGTQVTVSS” stands “high polyreactivity”; under “QVQLVESGGGLVQAGGSLRLICAASGRTFGPYAMGWYRQAPGKEREFVAAITWRGGRTNYADSVKGRFTISRDNAKNTVYLQMNSLKPEDTAVYYCNAVISPHQWIRGGDSWGQGTQVTVSS”, “low polyreactivity”; under “QVQLVESGGGLVQAGGSLRLSCAASGYIFGYYVMGWYRQAPGKERELVAAISGRGGRTYYADSVKGRFTISRDNAKNTVYLQMNSLKPEDTAVYYCAAADLPGTMYYWGQGTQVTVSS”, “high polyreactivity”.
“QVQLVESGGGLVQAGGSLRLSCAASGSTFPRNAMGWYRQAPGKERELVAAISYSGGRTYYADSVKGRFTISRDNAKNTVYLQMNSLKPEDTAVYYCAAQPYSHVRGKSYGYWGQGTQVTVSS”: the “polyreactivity (PSR sort gate)” value is given as “high polyreactivity”.
Under “QVQLVESGGGLVQAGGSLRLSCAASGSIFGSYAMGWYRPAPGKERELVAAITIADITYYADSVKGRFTISRDNAKNTVYLQMNSLKPEDTAVYYCAAPYSPLWYPGGDYWRQGTQVTVSS” stands “low polyreactivity”; under “QVQLEESGAGLVQAGGSLRLSCAASVFTFCCTTMGRSRPAPGKESELVATISRTGGITYYADSVKGRFTISRDNAKNTVNLQMNSLKPEDTAVYYCILRYYWGQVTQVTVSS”, “high polyreactivity”.
As for “QVQLVESGGGLVQAGGSLRLSCAASGFIFRYYAMGWYRQAPGKETELVAAINRGGGTNYADSVKGRFTISRDNAKNTVYLQLNSLKPEDTAVYYCAAVIRTVRERYGYWGQGTQVTVSS”, the “polyreactivity (PSR sort gate)” value is listed as “high polyreactivity”.
Take “QVQLVESGGGLVQAGGSLRLSCAASGIIFPSYVMGWYRQAPGKERELVAVITWSGGSTYYADSVKGRFTISRDNAKNTVYLQMNSLKPEDTAVYYCARRRRWVHSFDYWGQGTQVTVSS”: the “polyreactivity (PSR sort gate)” value is “high polyreactivity”.
For the sequence “QVQLVESGGGLVQAGGSLRLSCAASGDIFSRYMGWYRQAPGKERELVAAITRGGVSTYYADSVKGRFTISRDNAKNTVYLQMNSLKPEDTAVYYCATGRPVYYVASYDYDYWGQGTQVTVSS”, the “polyreactivity (PSR sort gate)” value is on record as “low polyreactivity”.
Under “QVQLVESGGGLVQAGGSLRLSCAASGFTIYRYAMGWYRQAPGKERELVATIRRGGSTKYADSVKGRYTISRDNAKNTVYILMISLKPEDTAVYYCNARYYAAPDKYYYWGQGTQVTVSS” stands “low polyreactivity”.
Under “QVQLVESGGGLVQAGGSLRLSCASSGLTFKQYAMVWYRQAPGKERELVAAITVSGGDTYYADSVKGRFTISRDNAKNTVYLQMNSLKPEDTAVYYCAAEHFFWGYDYWGQGTQVTVSS” stands “high polyreactivity”; under “QVQLVESGGGLVQAGGSLRLSCAASGFIFKYNAMGWYRQAPGKERELVAAISYRGTRTYYADSVKGRFTISRDNAKNTVYLQMNSLKPEDTAVYYCNAGLTYNHHPYDYWGQGTQVTVSS”, “high polyreactivity”.
In the case of “QVQLEESGGGLVQAGGSLRLSCAASGRTFSRNAMGWYIQAPGKERELVAAISQRGVSTYYADSVKGRFTISRDNAMNTVYLQMNSLKPEDTAVYYCNTRGTYRYDYWGQGTQVTVSS”, the “polyreactivity (PSR sort gate)” value is “low polyreactivity”.
Under “QVQLVESGGGLVQAGGSLRLSSAASGRTFGGYAMGWYRQAPGKERELVAAISWTGGSTYDADSVKGRFTISRDNAKNTVYLQMNSLKPEDTAVYYCNRDVGRNYQGPEYYYWGQGTQVTVSS” stands “low polyreactivity”.
Turning to “QVQLVESVGGLVHAGGSLRLSCAASGRTFGYNAMGWYRQATGKERELVAAISFRGGTTYYADSVKGRFTISRDNAKITVYLQMNCLIPEDPSVYYCAARYYYRYTGGRLDYWGQGTQVTVSS”, the “polyreactivity (PSR sort gate)” value is “high polyreactivity”.
Under “QVQLVESGGGLVQAGGSLRLSCAPSGITFLANTMGGYRQAPGKERELVATITSSGGSTYYADSVKGRFTISRDNAKNTVYLQMNSLKPEDTAGYYCADSDLRYRGNYVYLPSEYWGQGSQVTVSS” stands “low polyreactivity”.
Under “QVQLVESGGGLVQAGGSLRLSCAASGSTFGNYAMGWYRQAPGKERELVAAIRSRGGRTYYADSVKGRFTISRDYAKNTVYLQMNSLKPVDTAVYYCARDSRTGYYYWGQGTQVTVSS” stands “high polyreactivity”; under “QVQLVESGGGLVQAGGSLRLSCAASGRTFYGNAMGWYRQAPGKERELVAAITTGGGNTYYADSVKGRFTISRDNAKNTVYLQMNSLKPEDTAVYYCAKCYRAYYWGFNYWGQGTQVTVSS”, “high polyreactivity”.
